Our source for the abundance fitness values is the Human Domainome abundance scans (Beltran et al. 2025).

± gives the uncertainty stated by the source.

Sequences and labels used below:
B1: Unconventional myosin-Ie, residues 1051 to 1108; numbered along this chain, Q12965 (parent)
chain: PQVPQCKALYAYDAQDTDELSFNANDIIDIIKEDPSGWWTGRLRGKQGLFPNNYVTKI

The variants in this data set derive from B1. The experiment in a line: abundance fitness (aPCA) (normalised: wild type 0, dead -1); higher = more abundant; growth selection in yeast, the domain comes from the species named. Particulars: Homo sapiens.
Regarding PQVPQCKALYTYDAQDTDELSFNANDIIDIIKEDPSGWWTGRLRGKQGLFPNNYVTKI, the abundance fitness is -0.218 ± 0.076. With PQVPQCKALYNYDAQDTDELSFNANDIIDIIKEDPSGWWTGRLRGKQGLFPNNYVTKI, the abundance fitness amounted to 0.022 ± 0.17. Consider PQVPQCKALYMYDAQDTDELSFNANDIIDIIKEDPSGWWTGRLRGKQGLFPNNYVTKI, for which the abundance fitness was -0.149 ± 0.037.

In the case of PQVPQCKALYGYDAQDTDELSFNANDIIDIIKEDPSGWWTGRLRGKQGLFPNNYVTKI, the abundance fitness is -0.186 ± 0.055. On to PQVPQCKALYPYDAQDTDELSFNANDIIDIIKEDPSGWWTGRLRGKQGLFPNNYVTKI, for which the abundance fitness amounted to 0.019 ± 0.062.

Turning to PQVPQCKALYSYDAQDTDELSFNANDIIDIIKEDPSGWWTGRLRGKQGLFPNNYVTKI, the abundance fitness was -0.023 ± 0.058. With PQVPQCKALYFYDAQDTDELSFNANDIIDIIKEDPSGWWTGRLRGKQGLFPNNYVTKI the figure was -0.388 ± 0.12; with PQVPQCKALYEYDAQDTDELSFNANDIIDIIKEDPSGWWTGRLRGKQGLFPNNYVTKI, -0.059 ± 0.059; with PQVPQCKALYLYDAQDTDELSFNANDIIDIIKEDPSGWWTGRLRGKQGLFPNNYVTKI, -0.308 ± 0.056. Regarding PQVPQCKALYDYDAQDTDELSFNANDIIDIIKEDPSGWWTGRLRGKQGLFPNNYVTKI, the abundance fitness stood at 0.102 ± 0.096.

Regarding PQVPQCKALYQYDAQDTDELSFNANDIIDIIKEDPSGWWTGRLRGKQGLFPNNYVTKI, the abundance fitness stood at 0.045 ± 0.062. With PQVPQCKALYRYDAQDTDELSFNANDIIDIIKEDPSGWWTGRLRGKQGLFPNNYVTKI, the abundance fitness turned out to be 0.025 ± 0.03. With PQVPQCKALYHYDAQDTDELSFNANDIIDIIKEDPSGWWTGRLRGKQGLFPNNYVTKI, the abundance fitness was -0.013 ± 0.078. Take PQVPQCKALYCYDAQDTDELSFNANDIIDIIKEDPSGWWTGRLRGKQGLFPNNYVTKI: the abundance fitness is -0.193 ± 0.1. For PQVPQCKTLYAYDAQDTDELSFNANDIIDIIKEDPSGWWTGRLRGKQGLFPNNYVTKI, the abundance fitness is -0.544 ± 0.12. In the case of PQVPQCKFLYAYDAQDTDELSFNANDIIDIIKEDPSGWWTGRLRGKQGLFPNNYVTKI, the abundance fitness was -0.619 ± 0.31.

In the case of PQVPQCKSLYAYDAQDTDELSFNANDIIDIIKEDPSGWWTGRLRGKQGLFPNNYVTKI, the abundance fitness is -0.714 ± 0.15. On to PQVPQCKWLYAYDAQDTDELSFNANDIIDIIKEDPSGWWTGRLRGKQGLFPNNYVTKI, for which the abundance fitness is -1.03 ± 0.31.

For the variant PQVPQCKPLYAYDAQDTDELSFNANDIIDIIKEDPSGWWTGRLRGKQGLFPNNYVTKI, the abundance fitness is -0.732 ± 0.27.

Take PQVPQCKVLYAYDAQDTDELSFNANDIIDIIKEDPSGWWTGRLRGKQGLFPNNYVTKI: the abundance fitness is -0.714 ± 0.11. On to PQVPQCKNLYAYDAQDTDELSFNANDIIDIIKEDPSGWWTGRLRGKQGLFPNNYVTKI, for which the abundance fitness is -0.853 ± 0.33.

Turning to PQVPQCKRLYAYDAQDTDELSFNANDIIDIIKEDPSGWWTGRLRGKQGLFPNNYVTKI, the abundance fitness is -0.887 ± 0.15.

Consider PQVPQCKMLYAYDAQDTDELSFNANDIIDIIKEDPSGWWTGRLRGKQGLFPNNYVTKI, for which the abundance fitness is -0.817 ± 0.32. Take PQVPQCKILYAYDAQDTDELSFNANDIIDIIKEDPSGWWTGRLRGKQGLFPNNYVTKI: the abundance fitness is -1 ± 0.086. On to PQVPQCKELYAYDAQDTDELSFNANDIIDIIKEDPSGWWTGRLRGKQGLFPNNYVTKI, for which the abundance fitness was -0.674 ± 0.21. PQVPQCKGLYAYDAQDTDELSFNANDIIDIIKEDPSGWWTGRLRGKQGLFPNNYVTKI: the abundance fitness was -0.748 ± 0.077.

PQVPQCKKLYAYDAQDTDELSFNANDIIDIIKEDPSGWWTGRLRGKQGLFPNNYVTKI: the abundance fitness was -0.902 ± 0.32. As to PQVPQCKALWAYDAQDTDELSFNANDIIDIIKEDPSGWWTGRLRGKQGLFPNNYVTKI, the abundance fitness was -0.092 ± 0.065.

For PQVPQCKALMAYDAQDTDELSFNANDIIDIIKEDPSGWWTGRLRGKQGLFPNNYVTKI, the abundance fitness was -0.158 ± 0.039. In the case of PQVPQCKALDAYDAQDTDELSFNANDIIDIIKEDPSGWWTGRLRGKQGLFPNNYVTKI it was -0.247 ± 0.068; in that of PQVPQCKALRAYDAQDTDELSFNANDIIDIIKEDPSGWWTGRLRGKQGLFPNNYVTKI, 0.056 ± 0.036. With PQVPQCKALLAYDAQDTDELSFNANDIIDIIKEDPSGWWTGRLRGKQGLFPNNYVTKI, the abundance fitness was -0.16 ± 0.049. For PQVPQCKALCAYDAQDTDELSFNANDIIDIIKEDPSGWWTGRLRGKQGLFPNNYVTKI, the abundance fitness is -0.14 ± 0.058. Consider PQVPQCKALQAYDAQDTDELSFNANDIIDIIKEDPSGWWTGRLRGKQGLFPNNYVTKI, for which the abundance fitness is -0.054 ± 0.057.

In the case of PQVPQCKALIAYDAQDTDELSFNANDIIDIIKEDPSGWWTGRLRGKQGLFPNNYVTKI, the abundance fitness is -0.364 ± 0.091. With PQVPQCKALGAYDAQDTDELSFNANDIIDIIKEDPSGWWTGRLRGKQGLFPNNYVTKI the figure was -0.309 ± 0.033; with PQVPQCKALAAYDAQDTDELSFNANDIIDIIKEDPSGWWTGRLRGKQGLFPNNYVTKI, -0.186 ± 0.045. In the case of PQVPQCKALSAYDAQDTDELSFNANDIIDIIKEDPSGWWTGRLRGKQGLFPNNYVTKI it was -0.166 ± 0.031; in that of PQVPQCKALVAYDAQDTDELSFNANDIIDIIKEDPSGWWTGRLRGKQGLFPNNYVTKI, -0.121 ± 0.04; in that of PQVPQCKALHAYDAQDTDELSFNANDIIDIIKEDPSGWWTGRLRGKQGLFPNNYVTKI, -0.135 ± 0.072. With PQVPQCKALKAYDAQDTDELSFNANDIIDIIKEDPSGWWTGRLRGKQGLFPNNYVTKI the figure was -0.043 ± 0.058; with PQVPQCKALEAYDAQDTDELSFNANDIIDIIKEDPSGWWTGRLRGKQGLFPNNYVTKI, -0.217 ± 0.05.

Consider PQVPQCKALPAYDAQDTDELSFNANDIIDIIKEDPSGWWTGRLRGKQGLFPNNYVTKI, for which the abundance fitness was -0.821 ± 0.2. Consider PQVPQCKALFAYDAQDTDELSFNANDIIDIIKEDPSGWWTGRLRGKQGLFPNNYVTKI, for which the abundance fitness was -0.151 ± 0.069. With PQVPQCKALNAYDAQDTDELSFNANDIIDIIKEDPSGWWTGRLRGKQGLFPNNYVTKI the figure was -0.472 ± 0.1; with PQVPQCKALTAYDAQDTDELSFNANDIIDIIKEDPSGWWTGRLRGKQGLFPNNYVTKI, -0.218 ± 0.055.
